# Test: soluble on expression in E. coli; label from the status in PepcDB or PDB records
row,Sequence,soluble on expression in E. coli
1,MGSSHHHHHHSSGLVPRGSHMASMYTVGDYLLDRLHELGIEEIFGVPGDYNLQFLDQIISREDMKWIGNANELNASYMADGYARTKKAAAFLTTFGVGELSAINGLAGSYAENLPVVEIVGSPTSKVQNDGKFVHHTLADGDFKHFMKMHEPVTAARTLLTAENATYEIDRVLSQLLKERKPVYINLPVDVAAAKAEKPALSLEKESSTTNTTEQVILSKIEESLKNAQKPVVIAGHEVISFGLEKTVTQFVSETKLPITTLNFGKSAVDESLPSFLGIYNGKLSEISLKNFVESADFILMLGVKLTDSSTGAFTHHLDENKMISLNIDEGIIFNKVVEDFDFRAVVSSLSELKGIEYEGQYIDKQYEEFIPSSAPLSQDRLWQAVESLTQSNETIVAEQGTSFFGASTIFLKSNSRFIGQPLWGSIGYTFPAALGSQIADKESRHLLFIGDGSLQLTVQELGLSIREKLNPICFIINNDGYTVEREIHGPTQSYNDIPMWNYSKLPETFGATEDRVVSKIVRTENEFVSVMKEAQADVNRMYWIELVLEKEDAPKLLKKMGKLFAEQNK,soluble
2,SLSMKLLIADDEDTIRNGIAKYIKLHTDRFSQIYLAENGQQALDIILQYQPDMMLLDVQMPLKTGLEVLQEAQKLSLVPKTIILSGYDDFEYARKALRYGAKDYLLKPCRSSEILEAINKLVQEQLGTKEG,not soluble
3,MLSEVEFVEFQKENFSLLIDARSPREFLHSHLIGALNFYALNDEEYQEIGTIYKKNQALAKAMGASYICQNTTKHILEITQNFRIGEKVGIYCSRGGLRSKSIAVILSELGFRVVRLKGGFKAYRTFVTHYFENEINFDFFALCGNTGCGKTELLEQLPQAINLEKMANHLGSSFGDILGKQPTQKAFEAELFHNIQNLENFAFIESESRKIGDIILPLKFYEKMQKAFKIYCFCSLENRVRRIQKIYQEKMTPLKFQQCVQKISPYISLNLRQDLLQSYERKEWQKLIVMLLEYYDKTYKKPDKIDLELNTDDILKAKEELLDHFKVQLLF,not soluble
4,SLKIRERFSMVDLPVLIITAAIIGHDKYKAFHAGANDILQKPYHYSEFMARIQNLIMMKHTANQATRMEMAFLQSQIKPHFLYNVLNTIISLTHLDIEKAREVTEEFTNYLRMSFDFQNTSAISSFRHELSIINSYLSIEKTRFSNRLEVLFDIDEDIDFILPPLMIQPLVENAVLHGVSKKRGGGWIKLTAKKQSKNEYHIKVEDNGPGITPEKQIDLLSTDFDRSVGLKNINQRLKHFCGSELMISSTPDAGTSVSMLIHLAETTGSPKELKDTERT,soluble
5,MGSDKIHHHHHHMIKAMYSGVSGMKANQTKLDVIGNNVANAGTTSFKKSSARITDSFYQTVLYASAPTAALGGTNLGQVGVGSKISSINKDMVQGNVQPTNRPSDLMIDGDGYLPVVRQGTVMYTRDGSFNLDTGFKAADGALKNIKGGRLVNGDGYMLQGMIYDGEYKADTGEFVKKGDAKGKEPIVIPLQSISPKDGTVQNVLEYNISKDGTVEFLLSDGQRTQFVYDIPDGAKVGDTPAGIDKLKGTIQKVQIYAFQNPAGLDAAGGNLFKPSANSGDPQIAGATGTIIQGAIEASNVDIAEEFTEMIIASRSFQANSKIISTSDEILQEIINLKR,not soluble
6,MGSDKIHHHHHHMLLVFASCGVNKSTEDSKKTNETKVEQIATLSAGTPVQSLDPATAVDQTSVTLLANVMEGLYRLDEKNQPQPAIAAGQPKISNGGKTYTIVIRDGAKWADGTDITADDFVTAWQRVLDPKTASPNVELFAAIKNAKEISIGKQQKETLGVKSKGNKTIEIELEEPTPYFTDLLALTAYFPVQQNAVKEYGKEYGTTKENIVTNGAFTLTDLNGVGISDKWTIAKNPKYWDKKHVAMEKIKFQVVKDINTGINLYNDGQLDDAPVAGEYSKQLENNKDFIRELSATTMFLEVNQRNKKSITSNKHARQAINFAIDREAISNKILTNGSIPAKGVVPSKLVYNPKTGKDFTNSSLVFLDKSKAKDSWEKAKKELKGTDLSIDIMVNEEDLSKKLGEYLQNELQDTLDGLKVSVTAVPATLQTERLNSGNFMIALSGWQADFADPVSFLANFESKSSLNHGGYANEEYDKLLKNNSSKRLQELKDAEKLILEDAGVIPLLQIGNAKLRNQKISEMKVHSIGAKYDYKTMEIK,not soluble
7,MGSDKIHHHHHHMDYRKYFEKLKSDYVYLDNAATTPPLKSVMKKALEFLENYSSIHRGTGYLAKMSTDSYENSRRVIGEYLHATKDDVVVFTANTTDSINKFALLYPFMGNEGVLISDIEHSSNMLPWFKNSGRVKMFNTGKSNKINPYSIEEELYRNPQIKIVSICGASNLTGYLTPLRDIYKICKKYGVYLLVDASQIAPHFKITLDDCDFIAFSGHKMYAPFGAGVLAGRKDVLSHIGLAPTGGGNIVYIGKRGEVIYKEPPLSLEAGTPNGLGAVTVAEAMRVLNEDIGWENMNQHNKRINEIGYKYLSDLSNIKLYYPKDQDIRINRTPTFVFDFKNVGTKVGCDILKENKIGVRCGTFCLYRLIEKVKNIDEYERKRLYRNYIVPNRELPERYSLVRASAGLMTTEEDFLRLRAAIKKVE,not soluble
8,MSTPSHLNAQPLVWGHGPRTFEVFLEPTCPYSVRAFNKLDDLLDEVGADNVTIKIRLQSQPWHLFSGVIVRCILAASTLPHGREQAHKVMQAVADHREEFEFTDHCSGPNMNATPQQIIERIERYSHVLLGAAFARPELQDVIKWHSKYARQNGIHVSPTFMVNGLVQPDLGSGDDVSVWAARIMA,not soluble
9,GPLGMATEEAIIRIPPYHYIHVLDQNSNVSRVEVGPKTYIRQDNERVLFAPVRMVTVPPRHYCIVANPVSRDAQSSVLFDVTGQVRLRHADQEIRLAQDPFPLYPGELLEKDITPLQVVLPNTALHLKALLDFEDKNGDKVMAGDEWLFEGPGTYIPQKEVEVVEIIQATVIKQNQALRLRARKECFDRDGKERVTGEEWLVRSVGAYLPAVFEEVLDLVDAVILTEKTALHLRARQNFKDLRGVAHRTGEEWLVTVQDTEAHVPDVYEEVLGVVPITTLGPRHYCVILDPMGPDGKNQLGQKRVVKGEKSFFLQPGERLERGIQDVYVLSEQQGLLLKALQPLEEGEGEERVAHQAGDRWLIRGPLEYVPSAKVEVVEERQAIPLD,soluble
10,DCSPLSLLFGHSDAVVQALYSNNPVLHCLNSALAQTAKALAGTRRDLRVLEVGAGTGATTRHLLPMLEEHLSEYRFTDVSNLFLTQAQEHFAAWPQLTCSMLDVNQPVDFSQHPAQGYDLVVAVNVMHDAAHVTRSLKRLHRLLRSGGHLLLLEATERDSALQLASIGFIEGLSNFEDERSEDDKAMLDLPRWRTAVQASGFSWVMNWPQQADDSM,not soluble
11,MNRKGYKSGFVSIIGRPNVGKSTFLNRIIGQKIAIMSDKPQTTRNKIQGVYTENDSQVIFIDTPGIHKPKHKLGDFMVKMAQTTLKEVDIVLFMVNAVEGFGRGEEFIIEKLKETKQPVFLVINKIDQVHPEQLLELIDQYRKLHDFAEIVPISALDGNNAEALIGTIKKYLPEGPQYYPDNQVTDHPERFIIAELIREKVLHLTREEVPHSVAVVIDAIQKREGGAVYINATIVVERPSQKGIIIGKQGKMLKEVGKRARFDIEALLGSKVFLEVWVKVQKDWRNKMSQLRDLGFREDEY,not soluble
12,MGSDKIHHHHHHMASLDVFHQDAFTTIQLTTAVDKYPFQPTGLGDLNIFEPDPIRTTALAVEQRQGKLVVVPFSERGQEGTQRTTEQREARYFKVPRIMHADTLYANEIQDIRAFGTESELMQVQAEVARRLNGPTGLTSNIEYTWEYHRLAAVQGMLLDADGTVKYNWFDEFGITPPSLVPFNLSAQTPNSLRPIVNGIRRTMARKAQGAFLPTTKIFALCGDLFYDELTNHTDVIRTYLNWSAASELRDDSQGAAFEAFPFAGVTWSNYRGSDDNTTLKIPDDEVHFFPVGAPGVFRVAYAPGESFEWVNTPGKPIYVIPIYDRDRNSFWKMEAYSYPLHICTRPEVLQKGHAGA,not soluble
13,MGSDKIHHHHHHMNYSHFVGLDVGKKTFDASLMSADEKELSHKSFDNTPTGIQSLLDWIAGYHLSLSKLLFCAENMGSYVTELSVSSVSMGFSLALVCPLTIKKSIGLQRGKNDRIDAKRIANYAVLHYRKLELYKLPDKDLVRLRGWIIIRDNLVKQKVSSIKLLETFSWMAKLADVTESISFLEEQLKSIKERILEVEEDMEQLIAASTSLYTNYLLLRSIKGIGIINAIVLLCVTDNFQRFDNPRKFACYCGVAPFEHTSGISIRGKTQTSSLANKEVKVYLTRAAITAISWDPQMKAYYKRKIAEGKHKASVINAVRAKIIARSFAVIRRQTPFVTLAV,not soluble

# From the DeepSol protein solubility set
